# Measured values taken from paper PMC4690985.
# Key:
# [1] = target: Toyocamycin nitrile hydratase (TNH) α subunit (Streptomyces rimosus) (UniProt B6CWJ3); experiment: native MS
# [2] = target: TNH αβγ trimer (Streptomyces rimosus) (UniProt B6CWJ3); experiment: native MS
Substance,abundance of the αβ dimer among the SID products (αβγ trimer = 100%) [1] [%],stoichiometry N [2]
Toyocamycin nitrile hydratase (TNH) β subunit (natural protein),32,–
TNH αβγ trimer (from UniProt B6CWJ3 1-195) (complex),–,2
